According to patent US20240124586A1 (WUXI BIOLOGICS IRELAND, published 2024):
Numbering of substitutions follows the chain as printed. Numbers in names are those of the source. Like-named read-outs stand apart in the source and are kept apart here.

B1: W3248-U6T5.G25-1.uIgG4.SP, bispecific anti-PD-1 x CTLA-4 (bispecific antibody)
heavy: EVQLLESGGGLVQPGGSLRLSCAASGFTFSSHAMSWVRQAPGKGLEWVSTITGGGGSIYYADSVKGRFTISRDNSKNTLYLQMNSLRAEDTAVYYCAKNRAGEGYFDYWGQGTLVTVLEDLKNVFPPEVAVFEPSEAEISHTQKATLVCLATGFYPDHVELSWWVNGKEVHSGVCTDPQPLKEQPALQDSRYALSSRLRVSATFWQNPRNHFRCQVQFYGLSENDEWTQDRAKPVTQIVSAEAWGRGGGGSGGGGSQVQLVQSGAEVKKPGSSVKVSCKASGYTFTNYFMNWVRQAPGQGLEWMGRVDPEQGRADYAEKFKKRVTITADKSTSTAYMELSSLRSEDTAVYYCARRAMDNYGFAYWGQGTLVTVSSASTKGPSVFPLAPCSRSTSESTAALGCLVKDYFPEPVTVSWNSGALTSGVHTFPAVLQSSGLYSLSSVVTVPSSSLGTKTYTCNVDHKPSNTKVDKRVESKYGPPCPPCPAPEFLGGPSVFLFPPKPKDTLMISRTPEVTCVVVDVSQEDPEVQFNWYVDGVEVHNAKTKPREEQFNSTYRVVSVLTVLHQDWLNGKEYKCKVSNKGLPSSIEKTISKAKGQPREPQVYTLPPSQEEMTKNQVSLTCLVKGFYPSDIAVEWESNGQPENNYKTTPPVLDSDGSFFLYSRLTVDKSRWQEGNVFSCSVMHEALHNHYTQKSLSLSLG
light 1: SYELTQPLSVSVALGQTARITCGGDNIGNKDVHWYQQKPGQAPVLVIYRDSNRPSGIPEGFSGSNSGNTATLTISRAQAGDEADYYCQVWDSIWVFGGGTKLTVLPDIQNPDPAVYQLRDSKSSDKSVCLFTDFDSQTQVSQSKDSDVYITDKCVLDMRSMDFKSNSAVAWSQKSDFACANAFQNSIIPEDTFFPSPESS
light 2: EIVLTQSPDFQSVTPKEKVTITCSANSALSYMYWYQQKPDQSPKLWVHGTSNLASGVPSRFSGSGSGTDFTLTINSLEAEDAATYYCHHWSNTQWTFGGGTKVEIKRTVAAPSVFIFPPSDEQLKSGTASVVCLLNNFYPREAKVQWKVDNALQSGNSQESVTEQDSKDSTYSLSSTLTLSKADYEKHKVYACEVTHQGLSSPVTKSFNRGEC
notes: IgG4 (S228P); also called WBP3248-U6T5.G25-1-uIgG4.SP; U6T5.G25.IgG4
B2: W3438-T3U4.E17-1.uIgG4.SP, bispecific anti-CD3 x CD19 (bispecific antibody)
heavy 1: QVQLVQSGAEVKKPGSSVKVSCKASGFAFTDYYIHWVRQAPGQGLEWMGWISPGNVNTKYNENFKGRVTITADKSTSTAYMELSSLRSEDTAVYYCARDGYSLYYFDYWGQGTLVTVLEDLKNVFPPEVAVFEPSEAEISHTQKATLVCLATGFYPDHVELSWWVNGKEVHSGVCTDPQPLKEQPALQDSRYALSSRLRVSATFWQNPRNHFRCQVQFYGLSENDEWTQDRAKPVTQIVSAEAWGRYGPPCPPCPAPEFLGGPSVFLFPPKPKDTLMISRTPEVTCVVVDVSQEDPEVQFNWYVDGVEVHNAKTKPREEQFNSTYRVVSVLTVLHQDWLNGKEYKCKVSNKGLPSSIEKTISKAKGQPREPQVYTLPPCQEEMTKNQVSLWCLVKGFYPSDIAVEWESNGQPENNYKTTPPVLDSDGSFFLYSRLTVDKSRWQEGNVFSCSVMHEALHNHYTQKSLSLSLGK
light 1: DIVMTQSPDSLAVSLGERATINCKSSQSLLNSRTRKNYLAWYQQKPGQPPKLLIYWASTRQSGVPDRFSGSGSGTDFTLTISSLQAEDVAVYYCTQSHTLRTFGGGTKVEIKPDIQNPDPAVYQLRDSKSSDKSVCLFTDFDSQTQVSQSKDSDVYITDKCVLDMRSMDFKSNSAVAWSQKSDFACANAFQNSIIPEDTFFPSPESS
heavy 2: QMQLVQSGPEVKKPGTSVKVSCKASGYAFTSYNMYWVRQARGQRLEWIGYIDPYNGDTTYNQKFKGRVTITRDMSTSTAYMELSSLRSEDTAVYYCLTTAYAMDYWGQGTLVTVSSASTKGPSVFPLAPCSRSTSESTAALGCLVKDYFPEPVTVSWNSGALTSGVHTFPAVLQSSGLYSLSSVVTVPSSSLGTKTYTCNVDHKPSNTKVDKRVESKYGPPCPPCPAPEFLGGPSVFLFPPKPKDTLMISRTPEVTCVVVDVSQEDPEVQFNWYVDGVEVHNAKTKPREEQFNSTYRVVSVLTVLHQDWLNGKEYKCKVSNKGLPSSIEKTISKAKGQPREPQVCTLPPSQEEMTKNQVSLSCAVKGFYPSDIAVEWESNGQPENNYKTTPPVLDSDGSFFLVSRLTVDKSRWQEGNVFSCSVMHEALHNHYTQKSLSLSLGK
light 2: DIQLTQSPSFLSASVGDRVTITCSASSTVNYMHWYQQKPGKAPKLLIYSTSNLASGVPSRFSGSGSGTEFTLTISSLQPEDFATYYCHQWSSYPYTFGQGTKLEIKRTVAAPSVFIFPPSDEQLKSGTASVVCLLNNFYPREAKVQWKVDNALQSGNSQESVTEQDSKDSTYSLSSTLTLSKADYEKHKVYACEVTHQGLSSPVTKSFNRGEC
notes: also called E17-Design_2-QQQQ (IgG4); E17-IgG4; copies: 1 + 1 + 1 + 1

How the values were obtained:
[1] = target: T1, ECD of human CTLA-4 (SPR analyte) (human, UniProt P16410 36-161); assay: SPR (Biacore), antibody captured as ligand on an anti-human IgG Fc chip, CTLA4 ECD as analyte
T1 construct: extracellular domain
Method: SPR technology was used to measure the on-rate constant (ka) and off-rate constant (kd) of the antibodies to ECD of CTLA-4 or PD-1. The affinity constant (KD) was consequently determined.
Biacore T200, Series S Sensor Chip CM5, Amine Coupling Kit, and 10×HBS-EP were purchased from GE Healthcare. Goat anti-human IgG Fc antibody was purchased from Jackson ImmunoResearch Lab (catalog number 109-005-098). In immobilization step, the activation buffer was prepared by mixing 400 mM EDC and 100 mM NHS immediately prior to injection. The CM5 sensor chip was activated for 420 s with the activation buffer. 30 μg/mL of goat anti-human IgG Fcγ antibody in 10 mM NaAc (pH 4.5) was then injected to Fc1-Fc4 channels for 200 s at a flow rate of 5 μL/min. The chip was deactivated by 1 M ethanolamine-HCl (GE). Then the antibodies were captured on the chip. Briefly, 4 μg/mL antibodies in running buffer (HBS-EP+) was injected individually to Fc3 channel for 30 s at a flow rate of […]. […] Regeneration buffer (10 mM Glycine pH 1.5) was injected at 10 μL min for 30 s following every dissociation phase.

[2] = target: T2, human CD19 on CD19+ B cell lines (Ramos, Raji) (human, UniProt P15391 20-556); assay: cell-based or functional assay
T2 sequence (looked up): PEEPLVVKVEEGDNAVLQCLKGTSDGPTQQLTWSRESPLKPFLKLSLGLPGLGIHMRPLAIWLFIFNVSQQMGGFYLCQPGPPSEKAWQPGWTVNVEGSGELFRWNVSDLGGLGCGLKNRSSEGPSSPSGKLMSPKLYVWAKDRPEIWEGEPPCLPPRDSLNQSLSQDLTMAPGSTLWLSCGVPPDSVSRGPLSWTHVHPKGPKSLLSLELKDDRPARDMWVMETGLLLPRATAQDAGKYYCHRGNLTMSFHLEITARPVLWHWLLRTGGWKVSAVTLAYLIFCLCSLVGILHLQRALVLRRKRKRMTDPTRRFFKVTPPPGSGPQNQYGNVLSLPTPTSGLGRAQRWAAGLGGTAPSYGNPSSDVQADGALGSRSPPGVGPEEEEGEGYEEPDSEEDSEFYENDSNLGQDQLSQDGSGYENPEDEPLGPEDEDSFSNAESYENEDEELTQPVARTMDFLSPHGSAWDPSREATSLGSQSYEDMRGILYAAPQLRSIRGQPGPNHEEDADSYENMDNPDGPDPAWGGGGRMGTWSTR

human C1Q = human C1Q (human, UniProt P02745 23-245; P02746 28-253; P02747 29-245); assay: ELISA, antibody coated on the plate, C1q titrated
Method: ELISA Plates (Nunc) were coated with antibody samples at 3 μg/mL overnight at 4° C. After blocking and washing, C1q was gradient diluted starting from 600 μg/mL and incubated at room temperature for 2 hr. The plates were then washed and subsequently incubated with sheep anti-human C1q Ab-HRP for 1 hr. After washing, TMB substrate was added and the interaction was stopped by 2 M HCl. The absorbance at 450 nm was read using a microplate reader (Molecular Device).
The binding activity of antibodies to C1Q was tested by ELISA.

FcγRIIa (H167) = target: T3, FcγRIIa (H167) (UniProt P12318 36-218, limits assumed); assay: SPR (Biacore), receptor captured on anti-his chip, steady state model
T3 sequence (looked up): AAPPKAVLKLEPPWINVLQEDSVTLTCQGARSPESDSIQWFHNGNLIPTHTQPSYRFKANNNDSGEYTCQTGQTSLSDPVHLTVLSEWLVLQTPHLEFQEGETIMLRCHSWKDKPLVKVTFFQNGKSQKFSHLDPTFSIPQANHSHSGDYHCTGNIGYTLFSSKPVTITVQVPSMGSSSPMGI
Method: (§1) Antibody binding affinity to FcγRs was detected using Biacore T200 (or Biacore 8K). Each receptor was captured on an anti-his antibody immobilized CM5 sensor chip (GE). Antibodies at different concentrations were injected over the sensor chip at a flow rate of 30 uL/min for an association phase of 60 s, followed by 60 s dissociation. The chip was then regenerated by 10 mM glycine (pH 1.5) after each binding cycle.
(§2) The sensorgrams of blank surface and buffer channel were subtracted from the test sensorgrams. The experimental data was fitted by 1:1 model using Langmiur analysis (for FcγRI) or steady state model (for other receptors). A molecular weight of 150 KDa was used to calculate the molar concentration of antibodies.

FcγRIIa (R167) = target: T4, FcγRIIa (R167) (UniProt P12318 36-218, limits assumed); assay: as above
T4 sequence (looked up): T3 sequence (looked up) with H132R
Method: as §1, §2

FcγRIIb = target: T5, FcγRIIb (UniProt P31994 46-217, limits assumed); assay: as above
T5 sequence (looked up): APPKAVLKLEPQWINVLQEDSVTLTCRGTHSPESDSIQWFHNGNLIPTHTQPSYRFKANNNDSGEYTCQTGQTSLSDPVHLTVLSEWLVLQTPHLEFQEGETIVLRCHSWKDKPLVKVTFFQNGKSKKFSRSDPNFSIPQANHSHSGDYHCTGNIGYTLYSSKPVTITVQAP
Method: as §1, §2

FcγRIIIa (F176) = FcγRIIIa (F176) (UniProt P08637 17-208); assay: as above
Method: as §1, §2

FcγRIIIa (V176) [3] = target: T6, FcγRIIIa (V176) (UniProt P08637 17-208); assay: as above
Method: as §1, §2

FcγRIIIa (V176) [4] = target: T6, FcγRIIIa (V176); assay: as above; remark: listed apart in the source
Method: as §1, §2

T1 sequence (P16410 36-161): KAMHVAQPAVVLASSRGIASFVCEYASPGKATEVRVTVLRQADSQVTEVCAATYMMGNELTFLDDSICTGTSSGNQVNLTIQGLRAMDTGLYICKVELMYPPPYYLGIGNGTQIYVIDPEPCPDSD
T6 sequence (P08637 17-208 F176V limits assumed): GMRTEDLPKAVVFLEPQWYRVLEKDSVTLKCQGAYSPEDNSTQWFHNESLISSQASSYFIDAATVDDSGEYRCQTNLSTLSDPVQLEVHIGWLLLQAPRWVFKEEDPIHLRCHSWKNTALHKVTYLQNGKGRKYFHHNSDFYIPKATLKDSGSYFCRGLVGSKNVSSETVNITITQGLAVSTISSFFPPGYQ
FcγRIIIa (F176), sequence (P08637 17-208 limits assumed): as the sequence (P08637 17-208 F176V limits assumed) above, with V160F counted along it
human C1Q, sequence (P02745 23-245 limits assumed, chain 1 of 3): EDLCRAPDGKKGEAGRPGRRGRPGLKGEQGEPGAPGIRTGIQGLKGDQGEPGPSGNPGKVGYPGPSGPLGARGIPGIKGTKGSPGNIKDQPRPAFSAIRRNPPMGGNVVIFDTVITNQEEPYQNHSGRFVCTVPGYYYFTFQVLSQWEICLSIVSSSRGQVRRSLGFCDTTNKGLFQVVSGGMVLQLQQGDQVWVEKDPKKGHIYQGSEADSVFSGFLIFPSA
human C1Q, sequence (P02746 28-253 limits assumed, chain 2 of 3): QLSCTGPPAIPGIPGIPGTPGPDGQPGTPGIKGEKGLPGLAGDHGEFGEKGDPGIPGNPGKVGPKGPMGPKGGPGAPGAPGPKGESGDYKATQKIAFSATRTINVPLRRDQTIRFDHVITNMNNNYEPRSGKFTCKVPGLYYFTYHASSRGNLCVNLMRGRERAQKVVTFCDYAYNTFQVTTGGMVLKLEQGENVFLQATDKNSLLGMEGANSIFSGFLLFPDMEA
human C1Q, sequence (P02747 29-245 limits assumed, chain 3 of 3): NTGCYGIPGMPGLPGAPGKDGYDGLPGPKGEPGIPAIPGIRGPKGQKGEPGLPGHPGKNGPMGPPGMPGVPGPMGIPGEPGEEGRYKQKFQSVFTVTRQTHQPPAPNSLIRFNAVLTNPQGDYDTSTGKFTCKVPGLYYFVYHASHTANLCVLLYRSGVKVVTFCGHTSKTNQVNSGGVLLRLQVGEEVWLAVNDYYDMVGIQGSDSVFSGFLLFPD

Row | Binder | Kd [1] | koff [1] | kon [1] | EC50 of T-cell directed killing of malignant B cells (PI-positive Raji cells) [2] | EC50 of T-cell engaged malignant B cell killing [2] | EC50 of cell lysis, CD8+ T cells and Raji cells, 4 hours [2] | binding result (human C1Q) | Kd (FcγRIIa (H167)) | Kd (FcγRIIa (R167)) | Kd (FcγRIIb) | Kd (FcγRIIIa (F176)) | Kd (FcγRIIIa (V176) [3]) | Kd (FcγRIIIa (V176) [4])
1 | B1 | 0.0356 nM | 2.88e-05 s⁻¹ | 808000 M⁻¹ s⁻¹ |  |  |  |  |  |  |  |  |  | 
2 | B2 |  |  |  | 57 pM | 17.7 pM | 15 nM | no binding (tested: about 1500 nM C1q) | 20.5 µM | 15.8 µM | 24.1 µM | 29.3 µM | 14 µM | 14 µM
